Where “and” joins values, the source holds several entries; their conditions need not be identical. Identical values can stand only once.
How the values were obtained:
[1] = target: mouse NGF (nerve growth factor, from mouse submaxillary salivary glands) (mouse) (UniProt P01139)
[2] = target: T1, mouse NGF (nerve growth factor, from mouse submaxillary salivary glands) (mouse, UniProt P01139 122-241); assay: cell-based or functional assay
125I-labeled NGF = 125I-labeled NGF (UniProt P01139 122-241, 125I label); assay: radioligand binding; competition: 15N-labeled TrkAIg2-NMR at varied concentration sequesters 125I-labeled NGF from full-length human TrkA on HEK cells; details: both partners purified
Sequence of 125I-labeled NGF (P01139 122-241): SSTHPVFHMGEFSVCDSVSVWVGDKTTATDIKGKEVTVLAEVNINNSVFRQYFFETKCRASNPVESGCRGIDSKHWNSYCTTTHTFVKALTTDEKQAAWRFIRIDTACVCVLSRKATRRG

[3] = target: T1, mouse NGF (nerve growth factor, from …); assay: SEC; Superdex 75 gel filtration; TrkAIg2-NMR and mouse NGF applied separately and as a 1:1 ratio complex (1 mg/mL of each); 50 mM phosphate buffer, 150 μM NaCl, pH 7.4; sizes from a calibration curve; details: both partners purified

T1 sequence (P01139 122-241): as above
Sequence of "wild-type" TrkAIg2 (TrkAIg2-WT) (domain or fragment) (P04629 33-796): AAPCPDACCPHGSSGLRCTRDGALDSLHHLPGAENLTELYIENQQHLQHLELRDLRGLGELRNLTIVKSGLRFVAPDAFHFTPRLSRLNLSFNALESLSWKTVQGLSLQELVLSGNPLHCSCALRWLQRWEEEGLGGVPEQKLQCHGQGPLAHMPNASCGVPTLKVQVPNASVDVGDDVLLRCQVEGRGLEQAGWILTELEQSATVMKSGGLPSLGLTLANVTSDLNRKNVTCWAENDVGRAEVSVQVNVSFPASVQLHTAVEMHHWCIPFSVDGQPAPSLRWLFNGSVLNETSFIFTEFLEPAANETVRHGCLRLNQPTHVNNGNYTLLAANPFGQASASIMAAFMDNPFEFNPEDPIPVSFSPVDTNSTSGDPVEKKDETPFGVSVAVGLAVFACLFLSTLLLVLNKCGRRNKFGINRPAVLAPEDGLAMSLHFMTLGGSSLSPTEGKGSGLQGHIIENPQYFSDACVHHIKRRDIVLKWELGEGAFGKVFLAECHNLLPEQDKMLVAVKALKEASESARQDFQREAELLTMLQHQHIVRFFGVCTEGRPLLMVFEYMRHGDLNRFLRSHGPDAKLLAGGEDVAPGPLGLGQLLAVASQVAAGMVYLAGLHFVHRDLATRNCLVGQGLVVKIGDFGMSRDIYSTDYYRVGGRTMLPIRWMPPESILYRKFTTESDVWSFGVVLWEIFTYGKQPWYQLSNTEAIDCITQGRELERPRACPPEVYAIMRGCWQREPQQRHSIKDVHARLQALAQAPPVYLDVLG
Sequence of mouse NGF (nerve growth factor, from mouse submaxillary salivary glands) (mouse) (P01139 122-241): as the sequence (P01139 122-241) above

| Molecule | NGF-dependent PC12 cell survival/proliferation (MTS assay, mouse NGF 5 ng/mL), serial dilutions of TrkAIg2-WT; EC50 of the reduction [1] [µM] | NGF-dependent PC12 cell survival/proliferation (MTS assay, mouse NGF 5 ng/mL), serial dilutions of TrkAIg2-NMR; EC50 of the reduction [2] [µM] | IC50 (125I-labeled NGF) | stoichiometry N [3] |
| --- | --- | --- | --- | --- |
| "wild-type" TrkAIg2 (TrkAIg2-WT) (domain or fragment) | 0.48 |  |  |  |
| TrkAIg2-NMR (domain or fragment, human) MDDDDDVSFCASVQLHTAVEMHHWCIPFSVDGQPAPSLRWLFNGSVLNETSFIFTEFLEPAANETVRHGCLRLNQPTHVNNGNYTLLAANPCGQASASIMAAFMDNPF |  | 2.1 | ~5 µM and ~2 µM | 2 TrkAIg2-NMR monomers per NGF dimer |
